{"source": "patent US8993518B2", "about": "“Compositions and methods for treating antiphospholipid syndrome” (Beth Israel Deaconess Medical Center, Inc., priority 2010, dated 2015)", "key": {"[1]": {"target": "T1, domain V of β2GPI (β2GPI-DV) (Homo sapiens, UniProt P02749)", "T1 construct": "Domain V of β2GPI (residues 244-326), was subcloned into a pET15b vector (Novagen); histidine tag followed by TEV protease site (N, cleaved yes); made in house", "T1 sequence (P02749 263-345)": "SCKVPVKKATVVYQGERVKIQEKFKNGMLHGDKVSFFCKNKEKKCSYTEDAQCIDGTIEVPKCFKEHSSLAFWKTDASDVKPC", "assay": "Inhibition of binding of isolated domain V of β2GPI to cardiolipin in the absence of antibodies", "conditions": "in the absence of dimerization antibodies, read-out: concentration at half-maximal inhibition of binding of domain V to cardiolipin", "method": "(§1) Cardiolipin-coated 96 well plates available as part of the ImmunoWELL cardiolipin IgG test kit (GenBio) were blocked with 0.5% of skim milk and 2% BSA in 20 mM Tris, 100 mM NaCl, 2 mM CaCl2, pH 7.4. The assay buffer contained 20 mM Tris, 100 mM NaCl, 2 mM CaCl2, pH 7.4 with 2% BSA and the wash buffer was 20 mM Tris, 100 mM NaCl, 2 mM CaCl2, pH 7.4. When the purified β2GPI (Haematologic Technologies, Inc.) was used in experiments, 27 mM glycine was added to the assay buffer to account for glycine present in the stock solution of β2GPI. β2GPI bound to cardiolipin was detected with peroxidase-conjugated anti-β2GPI antibodies (Cedarlane, CL20021HP, 2 mg/ml) diluted 1:2500. […] The peroxidase activity of the bound antibodies was detected using 2-2′-azino-di-[3-ethylbenzthizzoline]sulfonate (ABTS) chromogenic reagent by measuring OD at 405 nm. […] The fits of the raw data and the titration data points were then normalized to the maximum binding determined from the fit to facilitate comparison.\n(§2) For the inhibition studies, increasing concentrations of A1 or A1-A1 were added to a constant amount of β2GPI (50 nM), normal human serum (1%) or β2GPI-DV (130 nM) and incubated for 1 hour at room temperature. […] Then, samples were incubated on wells for an additional 1 hour and, after washing, the bound β2GPI/anti-β2GPI or β2GPI-DV/anti-tag antibody complexes were detected."}, "[2]": {"target": "T2, β2GPI/anti-β2GPI antibody complexes (β2GPI purified from human plasma) (Homo sapiens, UniProt P02749)", "T2 construct": "We used β2GPI purified from human plasma available from Haematologic Technologies, Inc; purchased Haematologic Technologies, Inc; host or cells: human plasma", "T2 sequence (P02749 20-345)": "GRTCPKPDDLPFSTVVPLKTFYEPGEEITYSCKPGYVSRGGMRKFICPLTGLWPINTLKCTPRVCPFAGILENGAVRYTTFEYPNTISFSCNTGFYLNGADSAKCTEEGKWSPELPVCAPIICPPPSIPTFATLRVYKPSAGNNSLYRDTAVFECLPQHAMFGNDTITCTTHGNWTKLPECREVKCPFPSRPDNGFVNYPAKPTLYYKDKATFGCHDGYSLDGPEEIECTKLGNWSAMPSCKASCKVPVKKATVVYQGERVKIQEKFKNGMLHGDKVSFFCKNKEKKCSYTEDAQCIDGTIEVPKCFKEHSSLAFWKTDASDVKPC", "assay": "Inhibition of binding of purified β2GPI to cardiolipin in the presence of anti-β2GPI antibodies", "conditions": "10 nM purified β2GPI, one-site inhibition fit, read-out: half-maximal inhibition of binding of purified β2GPI to cardiolipin", "method": "(§3) Cardiolipin-coated 96 well plates available as part of the ImmunoWELL cardiolipin IgG test kit (GenBio) were blocked with 0.5% of skim milk and 2% BSA in 20 mM Tris, 100 mM NaCl, 2 mM CaCl2, pH 7.4. The assay buffer contained 20 mM Tris, 100 mM NaCl, 2 mM CaCl2, pH 7.4 with 2% BSA and the wash buffer was 20 mM Tris, 100 mM NaCl, 2 mM CaCl2, pH 7.4. When the purified β2GPI (Haematologic Technologies, Inc.) was used in experiments, 27 mM glycine was added to the assay buffer to account for glycine present in the stock solution of β2GPI. β2GPI bound to cardiolipin was detected with peroxidase-conjugated anti-β2GPI antibodies (Cedarlane, CL20021HP, 2 mg/ml) diluted 1:2500. To detect β2GPI-DV bound to cardiolipin, we used peroxidase-conjugated anti-HA antibody (Abcam, ab1265, 1 mg/ml) directed to HA epitope tag at the N-terminus of β2GPI-DV diluted 1:2500. The peroxidase activity of the bound antibodies was detected using 2-2′-azino-di-[3-ethylbenzthizzoline]sulfonate (ABTS) chromogenic reagent by measuring OD at 405 nm. […] The fits of the raw data and the titration data points were then normalized to the maximum binding determined from the fit to facilitate comparison.\n(§4) […] Then, samples were incubated on wells for an additional 1 hour and, after washing, the bound β2GPI/anti-β2GPI or β2GPI-DV/anti-tag antibody complexes were detected."}, "[3]": {"target": "T3, β2GPI/anti-β2GPI antibody complexes (β2GPI in normal human serum) (Homo sapiens, UniProt P02749)", "T3 construct": "pooled normal human serum (Innovative Research); tissue Innovative Research; host or cells: pooled normal human serum", "T3 sequence (P02749 20-345)": "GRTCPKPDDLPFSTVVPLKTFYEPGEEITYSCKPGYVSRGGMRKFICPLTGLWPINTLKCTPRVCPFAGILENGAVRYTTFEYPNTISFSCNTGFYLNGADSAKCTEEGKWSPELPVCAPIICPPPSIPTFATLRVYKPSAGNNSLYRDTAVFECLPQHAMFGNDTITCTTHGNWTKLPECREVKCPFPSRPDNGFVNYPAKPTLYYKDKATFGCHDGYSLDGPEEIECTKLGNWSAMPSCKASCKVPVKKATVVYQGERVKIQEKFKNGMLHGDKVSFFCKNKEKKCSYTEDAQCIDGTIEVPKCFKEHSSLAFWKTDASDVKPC", "assay": "Inhibition of binding of β2GPI in human serum to cardiolipin in the presence of anti-β2GPI antibodies", "conditions": "0.04% human serum, read-out: half-maximal inhibition of binding of β2GPI in serum to cardiolipin", "method": "as §3, §4"}, "[4]": {"target": "T4, β2GPI in normal human serum (Homo sapiens, UniProt P02749)", "T4 construct": "pooled normal human serum (Innovative Research); tissue Innovative Research; host or cells: pooled normal human serum", "T4 sequence (P02749 20-345)": "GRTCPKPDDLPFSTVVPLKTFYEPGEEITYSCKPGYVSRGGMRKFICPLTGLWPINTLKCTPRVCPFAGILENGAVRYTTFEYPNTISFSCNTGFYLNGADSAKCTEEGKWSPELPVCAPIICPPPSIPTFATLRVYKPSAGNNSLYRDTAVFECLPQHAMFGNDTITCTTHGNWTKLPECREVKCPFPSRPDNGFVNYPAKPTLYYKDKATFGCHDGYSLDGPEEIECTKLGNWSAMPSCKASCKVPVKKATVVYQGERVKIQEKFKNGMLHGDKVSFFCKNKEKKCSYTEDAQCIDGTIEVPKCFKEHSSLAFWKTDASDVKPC", "assay": "Inhibition of binding of β2GPI in human serum to cardiolipin in the absence of anti-β2GPI antibodies", "conditions": "1% human serum, read-out: concentration of inhibitor at 50% inhibition of β2GPI in serum binding to cardiolipin", "method": "as §1, §2"}, "domain V of β2GPI": {"target": "T5, domain V of β2GPI (Homo sapiens, UniProt P02749)", "T5 sequence (P02749 263-345 limits assumed)": "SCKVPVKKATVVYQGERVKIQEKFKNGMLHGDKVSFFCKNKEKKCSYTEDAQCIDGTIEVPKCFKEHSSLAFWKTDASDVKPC", "conditions": "Lee et al., Structure 18:366-376, 2010; read-out: affinity of A1 for domain V of β2GPI; cited from earlier work"}, "[5]": {"target": "T6, dimeric β2GPI-DV/anti-tag antibody complexes (Homo sapiens, UniProt P02749)", "T6 construct": "Domain V of β2GPI (residues 244-326), was subcloned into a pET15b vector (Novagen); histidine tag followed by TEV protease site (N, cleaved yes); made in house", "T6 sequence (P02749 263-345)": "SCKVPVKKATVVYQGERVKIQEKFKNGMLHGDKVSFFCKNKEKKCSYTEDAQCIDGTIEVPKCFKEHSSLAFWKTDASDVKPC", "assay": "Inhibition of binding of β2GPI-DV to cardiolipin in the presence of dimerization (anti-tag) antibodies", "conditions": "30 nM β2GPI-DV, read-out: half-maximal inhibition of binding of β2GPI-DV to cardiolipin", "method": "as §3, §4"}, "[6]": {"target": "T7, β2GPI purified from human plasma (Homo sapiens, UniProt P02749)", "T7 construct": "We used β2GPI purified from human plasma available from Haematologic Technologies, Inc; purchased Haematologic Technologies, Inc; host or cells: human plasma", "T7 sequence (P02749 20-345)": "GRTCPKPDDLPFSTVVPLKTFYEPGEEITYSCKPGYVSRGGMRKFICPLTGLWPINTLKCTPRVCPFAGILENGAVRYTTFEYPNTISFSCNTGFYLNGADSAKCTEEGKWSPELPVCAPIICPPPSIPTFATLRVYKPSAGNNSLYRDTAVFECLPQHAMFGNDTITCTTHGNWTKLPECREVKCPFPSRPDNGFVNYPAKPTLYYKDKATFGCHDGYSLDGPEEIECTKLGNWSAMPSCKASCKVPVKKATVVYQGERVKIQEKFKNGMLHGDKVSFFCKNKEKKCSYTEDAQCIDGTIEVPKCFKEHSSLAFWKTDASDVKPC", "assay": "Inhibition of binding of purified β2GPI to cardiolipin in the absence of anti-β2GPI antibodies", "conditions": "in the absence of anti-β2GPI antibodies (FIG. 5)", "method": "as §1, §2"}, "[7]": {"assay": "Binding of β2GPI in normal human serum to cardiolipin-coated surface", "method": "as §1\n(§5) For the binding studies, 50 μl of increasing concentrations of either β2GPI (Haematologic Technologies, Inc.), pooled normal human serum (Innovative Research), or the purified recombinant β2GPI-DV were applied to wells and incubated for 1 hour at room temperature. […] Then, the samples were applied to cardiolipin, incubated for 1 hour, washed, and bound β2GPI or β2GPI-DV was detected."}, "[8]": {"assay": "Binding of purified β2GPI to cardiolipin-coated surface", "set-up": "species or system human", "conditions": "read-out: half-maximal binding of purified β2GPI to cardiolipin", "method": "as §1, §5"}, "[9]": {"assay": "Binding of β2GPI-DV to cardiolipin-coated surface", "conditions": "read-out: binding of β2GPI-DV to cardiolipin, one-site model fit", "method": "as §1, §5"}, "[10]": {"conditions": "in the absence of anti-β2GPI antibodies"}, "[11]": {"conditions": "in the presence of anti-β2GPI antibodies"}}, "data": [{"molecule": "A1: Monomeric first LA module, fragment of mouse ApoER2 (residues 12-47 of the mature protein)", "values": [{"measurement": "IC50", "setting": "[1]", "result": "188 ± 44", "unit": "µM"}, {"measurement": "IC50", "setting": "[2]", "result": "191 ± 34", "unit": "µM"}, {"measurement": "IC50", "setting": "[3]", "result": "218 ± 21", "unit": "µM"}, {"measurement": "IC50", "setting": "[4]", "result": "176 ± 37", "unit": "µM"}, {"measurement": "Kd", "setting": "domain V of β2GPI", "result": 1000, "unit": "µM"}, {"measurement": "IC50", "setting": "[5]", "result": "204 ± 33", "unit": "µM"}, {"measurement": "inhibition of binding of purified β2GPI to cardiolipin", "setting": "[6]", "result": "only weakly inhibited"}]}, {"molecule": "A1-A1: Dimeric inhibitor: two A1 (LA) modules from ApoER2 connected by a flexible Gly-Ser-Ser-Gly linker, SEQ ID NO: 1 (protein) AECEEDQFRCRNERCIPLVWRCDEDNDCSDNSDEDDCGSSGCEEDQFRCRNERCIPLVWRCDEDNDCSDNSDEDDCEA", "values": [{"measurement": "inhibition of binding of purified β2GPI to cardiolipin", "setting": "[6]", "result": "only weakly inhibited"}]}, {"molecule": "β2GPI: Beta2-glycoprotein I, in pooled normal human serum or purified from human plasma (Haematologic Technologies, Inc.) (protein) GRTCPKPDDLPFSTVVPLKTFYEPGEEITYSCKPGYVSRGGMRKFICPLTGLWPINTLKCTPRVCPFAGILENGAVRYTTFEYPNTISFSCNTGFYLNGADSAKCTEEGKWSPELPVCAPIICPPPSIPTFATLRVYKPSAGNNSLYRDTAVFECLPQHAMFGNDTITCTTHGNWTKLPECREVKCPFPSRPDNGFVNYPAKPTLYYKDKATFGCHDGYSLDGPEEIECTKLGNWSAMPSCKASCKVPVKKATVVYQGERVKIQEKFKNGMLHGDKVSFFCKNKEKKCSYTEDAQCIDGTIEVPKCFKEHSSLAFWKTDASDVKPC", "values": [{"measurement": "half-maximal binding of β2GPI in serum to cardiolipin", "setting": "[7]; [10]", "result": "0.40±0.05 % of serum"}, {"measurement": "half-maximal binding of β2GPI in serum to cardiolipin", "setting": "[7]; [11]", "result": "0.028±0.004 % of serum"}, {"measurement": "EC50", "setting": "[8]; [10]", "result": "0.043 ± 0.004", "unit": "µM"}, {"measurement": "EC50", "setting": "[8]; [11]", "result": "0.0024 ± 0.0004", "unit": "µM"}]}, {"molecule": "β2GPI-DV: Recombinant isolated domain V of β2GPI (residues 244-326), with an N-terminal HA tag in the binding assays (protein) YPYDVPDYASCKVPVKKATVVYQGERVKIQEKFKNGMLHGDKVSFFCKNKEKKCSYTEDAQCIDGTIEVPKCFKEHSSLAFWKTDASDVKPC", "values": [{"measurement": "EC50", "setting": "[9]; in the absence of anti-tag antibodies", "result": "0.112 ± 0.021", "unit": "µM"}, {"measurement": "EC50", "setting": "[9]; in the presence of anti-tag antibodies", "result": "0.019 ± 0.001", "unit": "µM"}]}]}
